Assay results from patent US20190194313A1 (JOINT STOCK COMPANY BIOCAD, published 2019).

What was measured:
Mouse sIL6R = molecular target: T1, Mouse sIL6R (mouse, UniProt P22272 20-364); assay: BLI, Octet Red 96, BCD89 immobilised on AR2G sensors; Table 2 prints '-' for KD
T1 construct: extracellular domain; also called mouse receptor; mouse IL-6R
T1 sequence (looked up): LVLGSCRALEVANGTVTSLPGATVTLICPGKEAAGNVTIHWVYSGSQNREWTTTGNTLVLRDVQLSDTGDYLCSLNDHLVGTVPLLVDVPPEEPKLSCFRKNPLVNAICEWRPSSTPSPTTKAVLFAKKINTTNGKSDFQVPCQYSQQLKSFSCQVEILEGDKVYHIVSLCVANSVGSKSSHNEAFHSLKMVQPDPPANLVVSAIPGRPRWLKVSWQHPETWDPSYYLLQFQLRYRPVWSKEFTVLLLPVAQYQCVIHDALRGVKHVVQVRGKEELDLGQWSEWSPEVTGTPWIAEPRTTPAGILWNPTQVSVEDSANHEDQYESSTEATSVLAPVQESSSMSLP
Description: (§1) The interaction of the selected anti-IL6R with interleukin-6 receptors of cynomolgus, guinea pig, dog and mouse was examined with ELISA (FIG. 11, 12). The binding affinity constants of BCD89 antibody to IL-6sR alpha subunit of a human, cynomolgus, guinea pig, dog and mouse were obtained with Octet Red 96 (by ForteBio). BCD89 was nonspecifically immobilized onto the surface of amino reactive sensors of the second generation (AR2G) using standard protocol according to manufacturer's instruction for preparation and immobilization of AR2G sensors. Analysis was conducted at 30° C. using PBS comprising 0.1% Tween-20 and 0.1% BSA as a working buffer. Titration of IL-6R of a human, cynomolgus, guinea pig, dog, rabbit and mouse was performed using a running buffer from concentration of 126 nM to 2 nM, spacing 2.
(§2) Binding curves, after subtracting a reference signal, were analyzed using Octet Data Analysis software (Version 7.0) in accordance with the standard procedure and using 1:1 interaction model.

Cynomolgus sIL6R = molecular target: T2, Cynomolgus sIL6R (cynomolgus, UniProt A0A2K5WN54 60-396); assay: BLI, Octet Red 96, BCD89 immobilised on AR2G sensors, receptor titrated from 126 nM to 2 nM, 1:1 model
T2 construct: extracellular domain; also called IL-6sR of a cynomolgus; cynomolgus IL-6R alpha subunit
T2 sequence: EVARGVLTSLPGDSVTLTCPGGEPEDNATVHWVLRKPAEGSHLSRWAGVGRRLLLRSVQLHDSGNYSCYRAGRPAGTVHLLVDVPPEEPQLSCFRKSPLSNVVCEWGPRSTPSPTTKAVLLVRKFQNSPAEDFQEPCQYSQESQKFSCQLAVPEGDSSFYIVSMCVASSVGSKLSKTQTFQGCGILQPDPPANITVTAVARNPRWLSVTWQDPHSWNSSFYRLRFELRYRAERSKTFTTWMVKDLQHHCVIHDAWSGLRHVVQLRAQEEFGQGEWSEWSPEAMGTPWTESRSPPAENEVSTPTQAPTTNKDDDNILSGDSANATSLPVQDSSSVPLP
Description: as §1, §2

[1] = molecular target: T3, Human sIL6R (recombinant IL-6sR alpha subunit of a human, Example 13) (human, UniProt P08887 20-365); assay: as above
T3 construct: extracellular domain; also called recombinant IL-6R of a human; human IL-6R alpha subunit
T3 sequence (looked up): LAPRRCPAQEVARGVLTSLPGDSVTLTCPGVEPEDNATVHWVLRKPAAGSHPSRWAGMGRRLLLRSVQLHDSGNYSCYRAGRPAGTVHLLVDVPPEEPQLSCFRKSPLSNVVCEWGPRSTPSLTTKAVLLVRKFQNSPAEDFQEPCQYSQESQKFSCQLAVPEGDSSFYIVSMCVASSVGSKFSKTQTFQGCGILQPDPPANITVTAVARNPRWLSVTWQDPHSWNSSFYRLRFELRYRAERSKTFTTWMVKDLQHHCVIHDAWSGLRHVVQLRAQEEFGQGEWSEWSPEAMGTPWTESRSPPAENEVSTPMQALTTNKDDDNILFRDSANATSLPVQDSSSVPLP
Description: as §1, §2

Guinea Pig sIL6R = molecular target: T4, Guinea Pig sIL6R (guinea pig); assay: as above
T4 construct: extracellular domain; also called guinea pig IL-6R; guinea pig IL-6R alpha subunit
Description: as §1, §2

binding result (Mouse sIL6R): no binding
Kd (Cynomolgus sIL6R): 2.4 nM
Kd [1]: 0.663 nM
Kd (Guinea Pig sIL6R): 306 nM
B1: BCD089 antibody (anti-IL-6sR) (antibody, IgG1, V domains shown)
VH: QVQLVQSGGGLVQPGGSLRLSCAASGFTFSSYYMSWVRQAPGKGLEWVSGIYSDGTTHYGDSVKGRFTISRDNAKNTVYLQLNSLRAEDTAMYYCAKGAGPTWWYALDAWGQGTLVTVSS
VL: DIQLTQSPSSVSVSVGERVTIDCKSSQSVLSASNTYLNWYQQKPGQAPQLLIYYASTRESGVPDRFSGSGSGTDFTLTISSLQAEDAAVYYCQQAYRAPVTFGQGTKLEIKR
notes: None of these passages names BCD089; also called BCD89; BCD-BCD-089 IgG1
